According to publication PMC6482001 (eLife, 2019):
Like-named read-outs stand apart in the source and are kept apart here. Each block holds one molecule with its values, some of them ahead of it.

Key:
GltTk [1] = biological target: T1, GltTk (Thermococcus kodakarensis, UniProt Q5JID0); assay: isothermal titration calorimetry; settings: 300 mM NaCl, 100 mM KCl, pH 8.0, 25 °C, 0.15% DM; Na+-coupled binding; cited from earlier work
T1 construct: gene TK0986; C-terminally His8-tagged (pBAD24-GltTk-His8), expressed in E. coli MC1061, purified in decylmaltoside-type detergent (DM) or reconstituted in proteoliposomes; homotrimer
From the text: (§1) isothermal titration calorimetry on GltTk

GltTk [2] = biological target: T1, GltTk; assay: isothermal titration calorimetry; type: binding
From the text: as §1

[3] = biological target: glutamate transporter homolog GltTk from Thermococcus kodakarensis (Thermococcus kodakarensis) (UniProt Q5JID0); assay: crystal structure; GltTk with D-aspartate, 2.8 Å; hanging drop vapour diffusion at 5°C, 300 mM NaCl, 300 µM D-aspartate, protein 7 mg/ml in 10 mM Hepes KOH pH 8.0, 100 mM KCl, 0.15% DM; outward-oriented occluded state
purified protein [4] = substrate: N[C@H](CC(=O)O)C(=O)O; assay: purified protein; settings: 100 mM NaCl outside, pH 7.5, 3 µM valinomycin, labelled compound
purified protein [5] = substrate: N[C@@H](CC(=O)O)C(=O)O; assay: purified protein; settings: 100 mM NaCl outside, pH 7.5, 3 µM valinomycin, labelled compound

Molecule: N[C@@H](CC(=O)O)C(=O)O [L-aspartate]
Kd (GltTk [1]): 120 ± 40 nM

Kd (GltTk [2]): 470 ± 170 nM
Molecule: N[C@H](CC(=O)O)C(=O)O [D-aspartate]

stoichiometry N [3]: 3
Molecule: glutamate transporter homolog GltTk from Thermococcus kodakarensis (from UniProt Q5JID0 1-430) (natural protein)

B1: GltTk (Thermococcus kodakarensis KOD1) (protein)
chain: MGKSLLRRYLDYPVLWKILWGLVLGAVFGLIAGHFGYAGAVKTYIKPFGDLFVRLLKMLVMPIVLASLVVGAASISPARLGRVGVKIVVYYLATSAMAVFFGLIVGRLFNVGANVNLGSGTGKAIEAQPPSLVQTLLNIVPTNPFASLAKGEVLPVIFFAIILGIAITYLMNRNEERVRKSAETLLRVFDGLAEAMYLIVGGVMQYAPIGVFALIAYVMAEQGVRVVGPLAKVVGAVYTGLFLQIVITYFILLKVFGIDPIKFIRKAKDAMITAFVTRSSSGTLPVTMRVAEEEMGVDKGIFSFTLPLGATINMDGTALYQGVTVLFVANAIGHPLTLGQQLVVVLTAVLASIGTAGVPGAGAIMLAMVLQSVGLDLTPGSPVALAYAMILGIDAILDMGRTMVNVTGDLAGTVIVAKTEKELDESKWIS
Km (purified protein [4]): 1.1 ± 0.11 µM
Km (purified protein [5]): 0.75 ± 0.17 µM
